Experimental data reported in PMC4841250, “Structure and stability of recombinant bovine odorant-binding protein: I. Design and analysis of monomeric mutants” (PeerJ, 2016).

Biological target: the molecule itself
Assay: SEC; gel filtration on Superdex-75 PC 3.2/30, buffered solution (20 mM Na-phosphate, pH 7.8) without OCT; calibrated with protein standards; monomer and dimer

B1: recombinant wild type bovine odorant-binding protein (natural protein)
chain: AQEEEAEQNLSELSGPWRTVYIGSTNPEKIQENGPFRTYFRELVFDDEKGTVDFYFSVKRDGKWKNVHVKATKQDDGTYVADYEGQNVFKIVSLSRTHLVAHNINVDKHGQTTELTELFVKLNVEDEDLEKFWKLTEDKGIDKKNVVNFLENEDHPHPE
notes: also called bOBP; bOBPwt; source: E. coli BL21(DE3), purified (Ni-agarose, HisGraviTrap columns)
stoichiometry N: 2
